One block for each molecule: values may come before it.
Assays:
[1] = target: c-Myc^1-331 labelled at the four N-terminal sites in the MB0–MBII region (fluorescence anisotropy); experiment: fluorescence polarisation; steady-state fluorescence anisotropy of the A488 dye on c-Myc in the donor-only samples with unlabeled AurA, same plates as for the lifetime measurements; excitation 470 nm, emission 516 nm; fit to a 1:1 binding model
[2] = target: c-Myc^1-88 labelled with A488 on C70, phosphorylated on T58 and S62 (UniProt P01106); experiment: as above
[3] = target: c-Myc^1-331 labelled at the four N-terminal sites in the MB0–MBII region (FRET); experiment: FRET or BRET; time-resolved fluorescence lifetime plate reader; Alexa 488-labelled c-Myc constant at 50 nM, DABCYL-labelled AurA titrated 0-12.8 uM; 384-well plates, room temperature, at least 30 min
[4] = target: c-Myc^1-331 single-cysteine construct C70, labelled with Alexa 488, phosphorylated on T58 and S62; experiment: as above

Kd [1]: 2000 to 3000 nM | fold enhancement of binding affinity over unphosphorylated c-Myc 1-88 [2]: 3 fold
Molecule: Aurora A kinase domain (AurA^122-403), unlabeled (from UniProt O14965 122-403) (domain or fragment)

Kd [3]: 2000 to 3000 nM | fold enhancement of binding affinity over unphosphorylated c-Myc 1-331 [4]: 2 fold
B1: Aurora A kinase domain (AurA^122-403), cysteine-lite, labelled with dabcyl acceptor (domain or fragment)
chain: ESKKRQWALEDFEIGRPLGKGKFGNVYLAREKQSKFILALKVLFKAQLEKAGVEHQLRREVEIQSHLRHPNILRLYGYFHDATRVYLILEYAPLGTVYRELQKCSKFDEQRTATYITELANALSYCHSKRVIHRDIKPENLLLGSAGELKIADFGWSVHAPSSRRTTLSGTLDYLPPEMIEGRMHDEKVDLWSLGVLCYEFLVGKPPFEANTYQETYKRISRVEFTFPDFVTEGARDLISRLLKHNPSQRPMLREVLEHPWITANSSKPSNSQNKESASKQS
modifications: DABCYL-Plus C2 maleimide on the cysteine introduced by L225C

— article PMC12203944
